From article doi:10.1101/2020.05.05.065912
Where two headings read alike, the source gives them in different places.

Experiments:
BRS-Myosin VI Tail-mRFP [1] = target: BRS-Myosin VI Tail-mRFP (UniProt Q9UM54); assay: FRET or BRET
BRS-Myosin VI Tail-mRFP [2] = target: BRS-Myosin VI Tail-mRFP (UniProt Q9UM54); assay: FRET or BRET; remark: listed apart in the source

UniProt Q9UM54, sequence (Q9UM54 whole entry): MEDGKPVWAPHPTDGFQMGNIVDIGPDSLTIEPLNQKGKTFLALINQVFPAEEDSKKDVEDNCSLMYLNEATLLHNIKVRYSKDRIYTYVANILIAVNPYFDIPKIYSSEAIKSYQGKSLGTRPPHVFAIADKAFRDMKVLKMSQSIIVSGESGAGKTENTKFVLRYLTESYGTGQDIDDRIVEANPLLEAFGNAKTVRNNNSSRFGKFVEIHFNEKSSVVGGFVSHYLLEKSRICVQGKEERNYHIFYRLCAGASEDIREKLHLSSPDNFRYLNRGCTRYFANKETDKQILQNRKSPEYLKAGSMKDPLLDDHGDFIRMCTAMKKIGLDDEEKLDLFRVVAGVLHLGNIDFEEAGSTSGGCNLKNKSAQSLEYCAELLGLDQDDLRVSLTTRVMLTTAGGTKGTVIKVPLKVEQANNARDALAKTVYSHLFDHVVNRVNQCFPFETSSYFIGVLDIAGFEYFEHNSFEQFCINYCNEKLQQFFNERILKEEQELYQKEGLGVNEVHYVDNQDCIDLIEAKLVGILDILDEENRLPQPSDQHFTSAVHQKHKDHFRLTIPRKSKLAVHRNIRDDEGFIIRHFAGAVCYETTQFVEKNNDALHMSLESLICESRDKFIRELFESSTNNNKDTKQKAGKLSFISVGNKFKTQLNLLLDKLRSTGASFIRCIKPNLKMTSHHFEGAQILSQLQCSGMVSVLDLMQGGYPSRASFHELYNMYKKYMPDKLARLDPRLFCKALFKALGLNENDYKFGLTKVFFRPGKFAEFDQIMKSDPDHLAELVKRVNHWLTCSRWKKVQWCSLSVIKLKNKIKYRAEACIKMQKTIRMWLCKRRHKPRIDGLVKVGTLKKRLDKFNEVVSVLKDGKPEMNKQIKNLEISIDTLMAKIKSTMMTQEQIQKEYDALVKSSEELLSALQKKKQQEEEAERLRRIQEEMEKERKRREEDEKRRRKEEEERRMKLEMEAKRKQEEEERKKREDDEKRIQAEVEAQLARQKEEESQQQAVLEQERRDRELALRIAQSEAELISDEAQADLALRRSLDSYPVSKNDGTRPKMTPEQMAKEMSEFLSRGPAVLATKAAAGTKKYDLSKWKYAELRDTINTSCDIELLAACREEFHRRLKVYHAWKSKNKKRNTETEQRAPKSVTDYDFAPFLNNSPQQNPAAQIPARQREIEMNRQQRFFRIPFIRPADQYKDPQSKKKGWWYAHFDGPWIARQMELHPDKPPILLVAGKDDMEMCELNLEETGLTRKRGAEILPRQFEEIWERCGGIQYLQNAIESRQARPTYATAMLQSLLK

Kd (BRS-Myosin VI Tail-mRFP [1]): 3.9 µM | Kd (BRS-Myosin VI Tail-mRFP [2]): 1100 nM
B1: GFP-NDP52 (natural protein)
chain: MEETIKDPPTSAVLLDHCHFSQVIFNSVEKFYIPGGDVTCHYTFTQHFIPRRKDWIGIFRVGWKTTREYYTFMWVTLPIDLNNKSAKQQEVQFKAYYLPKDDEYYQFCYVDEDGVVRGASIPFQFRPENEEDILVVTTQGEVEEIEQHNKELCKENQELKDSCISLQKQNSDMQAELQKKQEELETLQSINKKLELKVKEQKDYWETELLQLKEQNQKMSSENEKMGIRVDQLQAQLSTQEKEMEKLVQGDQDKTEQLEQLKKENDHLFLSLTEQRKDQKKLEQTVEQMKQNETTAMKKQQELMDENFDLSKRLSENEIICNALQRQKERLEGENDLLKRENSRLLSYMGLDFNSLPYQVPTSDEGGARQNPGLAYGNPYSGIQESSSPSPLSIKKCPICKADDICDHTLEQQQMQPLCFNCPICDKIFPATEKQIFEDHVFCHSL
